The target in this experiment is His6-DNAJB1 (human, UniProt P25685 1-340). In words: SPR.
His6-DNAJB1, sequence (P25685 whole entry): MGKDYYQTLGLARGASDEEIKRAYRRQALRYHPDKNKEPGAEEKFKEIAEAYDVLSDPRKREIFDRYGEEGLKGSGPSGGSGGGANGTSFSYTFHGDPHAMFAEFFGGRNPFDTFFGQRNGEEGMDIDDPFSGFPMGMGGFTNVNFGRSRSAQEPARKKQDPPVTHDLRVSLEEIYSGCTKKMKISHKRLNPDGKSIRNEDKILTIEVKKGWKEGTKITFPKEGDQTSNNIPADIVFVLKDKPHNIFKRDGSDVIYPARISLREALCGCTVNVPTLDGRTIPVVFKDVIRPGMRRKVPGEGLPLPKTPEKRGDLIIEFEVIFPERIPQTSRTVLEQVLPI

B1: GST-TrnSR (WT, without mCherry) (natural protein)
chain: MEGAKPTLQLVYQAVQALYHDPDPSGKERASFWLGELQRSVHAWEISDQLLQIRQDVESCYFAAQTMKMKIQTSFYELPTDSHASLRDSLLTHIQNLKDLSPVIVTQLALAIADLALQMPSWKGCVQTLVEKYSNDVTSLPFLLEILTVLPEEVHSRSLRIGANRRTEIIEDLAFYSSTVVSLLMTCVEKAGTDEKMLMKVFRCLGSWFNLGVLDSNFMANNKLLALLFEVLQQDKTSSNLHEAASDCVCSALYAIENVETNLPLAMQLFQGVLTLETAYHMAVAREDLDKVLNYCRIFTELCETFLEKIVCTPGQGLGDLRTLELLLICAGHPQYEVVEISFNFWYRLGEHLYKTNDEVIHGIFKAYIQRLLHALARHCQLEPDHEGVPEETDDFGEFRMRVSDLVKDLIFLIGSMECFAQLYSTLKEGNPPWEVTEAVLFIMAAIAKSVDPENNPTLVEVLEGVVRLPETVHTAVRYTSIELVGEMSEVVDRNPQFLDPVLGYLMKGLCEKPLASAAAKAIHNICSVCRDHMAQHFNGLLEIARSLDSFLLSPEAAVGLLKGTALVLARLPLDKITECLSELCSVQVMALKKLLSQEPSNGISSDPTVFLDRLAVIFRHTNPIVENGQTHPCQKVIQEIWPVLSETLNKHRADNRIVERCCRCLRFAVRCVGKGSAALLQPLVTQMVNVYHVHQHSCFLYLGSILVDEYGMEEGCRQGLLDMLQALCIPTFQLLEQQNGLQNHPDTVDDLFRLATRFIQRSPVTLLRSQVVIPILQWAIASTTLDHRDANCSVMRFLRDLIHTGVANDHEEDFELRKELIGQVMNQLGQQLVSQLLHTCCFCLPPYTLPDVAEVLWEIMQVDRPTFCRWLENSLKGLPKETTVGAVTVTHKQLTDFHKQVTSAEECKQVCWALRDFTRLFR
By koff is commonly meant the first-order rate constant of dissociation. For the molecule B1, the dissociation rate constant (koff) is 0.00014 s⁻¹.
